Reference: US20050019758A1

Legend:
Test in all cases: cell-based or functional assay
[1] = target: F protein of RS 9320 (prototype B1) (Respiratory Syncytial Virus)
[2] = target: F protein of RS Long strain virus (native form, on virus and infected VERO cells) (Respiratory Syncytial Virus) (UniProt P12568)
[3] = target: F protein of RSV clinical isolate A1-V1763 (Respiratory Syncytial Virus)
[4] = target: F protein of RSV clinical isolate A2-626 (Respiratory Syncytial Virus)
[5] = target: F protein of RSV clinical isolate A2-847 (Respiratory Syncytial Virus)
[6] = target: F protein of RSV clinical isolate A3-7062 (Respiratory Syncytial Virus)
[7] = target: F protein of RSV clinical isolate A4-6652 (Respiratory Syncytial Virus)
[8] = target: F protein of RSV clinical isolate B1-6973 (Respiratory Syncytial Virus)
[9] = target: F protein of RSV clinical isolate B2-6556 (Respiratory Syncytial Virus)
[10] = target: F protein of RSV clinical isolate B3-447 (Respiratory Syncytial Virus)

Chain of F protein of RS Long strain virus (native form, on virus and infected VERO cells) (Respiratory Syncytial Virus) (P12568 26-574): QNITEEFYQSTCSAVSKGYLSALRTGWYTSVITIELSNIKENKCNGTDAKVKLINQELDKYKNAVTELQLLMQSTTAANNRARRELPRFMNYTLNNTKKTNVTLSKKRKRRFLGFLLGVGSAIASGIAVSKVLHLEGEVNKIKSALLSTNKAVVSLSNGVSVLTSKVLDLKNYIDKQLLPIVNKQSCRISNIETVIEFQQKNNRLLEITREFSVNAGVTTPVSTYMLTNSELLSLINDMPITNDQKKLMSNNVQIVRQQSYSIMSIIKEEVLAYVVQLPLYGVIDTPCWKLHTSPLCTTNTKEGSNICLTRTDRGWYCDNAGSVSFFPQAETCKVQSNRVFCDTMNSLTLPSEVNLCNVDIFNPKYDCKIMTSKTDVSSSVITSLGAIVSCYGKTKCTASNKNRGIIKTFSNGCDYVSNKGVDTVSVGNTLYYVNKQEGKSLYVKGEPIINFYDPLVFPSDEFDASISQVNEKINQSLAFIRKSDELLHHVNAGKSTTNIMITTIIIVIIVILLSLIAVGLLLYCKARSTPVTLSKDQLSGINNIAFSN

SB 209763 (antibody) gave a Fusion-Inhibition Titer EC50 [1] of 2.5 µg/mL, a Fusion-Inhibition Titer EC50 [2] of 1.3 µg/mL and a Fusion-Inhibition Titer EC50 [3] of 1.95 µg/mL. For the same substance, the Fusion-Inhibition Titer EC50 [4] was 0.36 µg/mL, the Fusion-Inhibition Titer EC50 [5] was 0.27 µg/mL and the Fusion-Inhibition Titer EC50 [6] was 1.67 µg/mL. The Fusion-Inhibition Titer EC50 [7] was 1.52 µg/mL, the Fusion-Inhibition Titer EC50 [8] was 2.22 µg/mL and the Fusion-Inhibition Titer EC50 [9] was 2.05 µg/mL. The Fusion-Inhibition Titer EC50 [10] was 1.7 µg/mL.
